Assay results from paper PMC13397619.

B1: NLV3 TCR beta chain (CDR3β only) (parent)
chain: ASSPTGGSPSPLH

Variants of: B1
Assay: T-Switch: Jurkat TCRβ−/− cells expressing a CDR3 saturation-mutagenesis library, stained with two peptide-HLA-A*02:01 tetramers (original and novel peptide) plus anti-CD3, FACS-sorted into four gates, gDNA sequenced
Conditions: tetramers 1 µg/mL, 30 min on ice, SP, DP and SW gates expanded about 10 days between rounds ('two to three rounds of selection' in the Methods), unresolved parent, parent is a CDR3 fragment, scale: fold enrichment, numbering: sequential-on-construct, sequence starts at 1
[1] = with both tetramers (double-negative gate, binds neither): HLA-A*02:01 with … and with …, gate DN: OPPOSITE: higher = more of the variant in the gate that binds neither peptide = LESS binding (or no expression; inferred). Fold enrichment of the CDR3 variant in one FACS gate of a two-tetram
[2] = with both tetramers (double-positive gate): HLA-A*02:01 with … and with …, gate DP: higher = more of the variant in the gate that binds both peptides. Fold enrichment of the CDR3 variant in one FACS gate of a two-tetramer stain. SP/DP/SW gates were expanded and re-sorted bef

Variant	enrichment [1]	enrichment [2]
[…] (CDR3 as printed); P11E derived by comparing it with the table's wild-type CDR3 ASSPTGGSPSPLH	0.639	0
[…] (CDR3 as printed); G7S derived by comparing it with the table's wild-type CDR3 ASSPTGGSPSPLH	1.32	0
[…] (CDR3 as printed); G6K derived by comparing it with the table's wild-type CDR3 ASSPTGGSPSPLH	1.4	0
[…] (CDR3 as printed); P11T derived by comparing it with the table's wild-type CDR3 ASSPTGGSPSPLH	1.19	0
[…] (CDR3 as printed); P9G derived by comparing it with the table's wild-type CDR3 ASSPTGGSPSPLH	1.21	0
[…] (CDR3 as printed); T5D derived by comparing it with the table's wild-type CDR3 ASSPTGGSPSPLH	1.06	0
[…] (CDR3 as printed); P4C derived by comparing it with the table's wild-type CDR3 ASSPTGGSPSPLH	0.776	0
[…] (CDR3 as printed); S3I derived by comparing it with the table's wild-type CDR3 ASSPTGGSPSPLH	1.21	0
[…] (CDR3 as printed); G7D derived by comparing it with the table's wild-type CDR3 ASSPTGGSPSPLH	1.18	0
[…] (CDR3 as printed); G7V derived by comparing it with the table's wild-type CDR3 ASSPTGGSPSPLH	1.02	0
[…] (CDR3 as printed); S8C derived by comparing it with the table's wild-type CDR3 ASSPTGGSPSPLH	0.677	0
[…] (CDR3 as printed); A1I derived by comparing it with the table's wild-type CDR3 ASSPTGGSPSPLH	1.15	0
[…] (CDR3 as printed); P4E derived by comparing it with the table's wild-type CDR3 ASSPTGGSPSPLH	0.97	0
[…] (CDR3 as printed); G7T derived by comparing it with the table's wild-type CDR3 ASSPTGGSPSPLH	0.754	0
[…] (CDR3 as printed); S3M derived by comparing it with the table's wild-type CDR3 ASSPTGGSPSPLH	0.806	0
[…] (CDR3 as printed); S8Y derived by comparing it with the table's wild-type CDR3 ASSPTGGSPSPLH	0.351	0
[…] (CDR3 as printed); H13W derived by comparing it with the table's wild-type CDR3 ASSPTGGSPSPLH	0.345	0
[…] (CDR3 as printed); S8W derived by comparing it with the table's wild-type CDR3 ASSPTGGSPSPLH	0.85	0
[…] (CDR3 as printed); S2V derived by comparing it with the table's wild-type CDR3 ASSPTGGSPSPLH	0.992	0
[…] (CDR3 as printed); H13E derived by comparing it with the table's wild-type CDR3 ASSPTGGSPSPLH	0.868	0

Variant	enrichment [1]	enrichment [2]
[…] (CDR3 as printed); S3K derived by comparing it with the table's wild-type CDR3 ASSPTGGSPSPLH	1.11	0
[…] (CDR3 as printed); S10P derived by comparing it with the table's wild-type CDR3 ASSPTGGSPSPLH	1.37	0
[…] (CDR3 as printed); G7N derived by comparing it with the table's wild-type CDR3 ASSPTGGSPSPLH	0.87	0
[…] (CDR3 as printed); G7F derived by comparing it with the table's wild-type CDR3 ASSPTGGSPSPLH	1.02	0
[…] (CDR3 as printed); S10C derived by comparing it with the table's wild-type CDR3 ASSPTGGSPSPLH	0.577	0
[…] (CDR3 as printed); P11R derived by comparing it with the table's wild-type CDR3 ASSPTGGSPSPLH	0.579	0
[…] (CDR3 as printed); S10F derived by comparing it with the table's wild-type CDR3 ASSPTGGSPSPLH	1.25	0
[…] (CDR3 as printed); S3C derived by comparing it with the table's wild-type CDR3 ASSPTGGSPSPLH	0.656	0
[…] (CDR3 as printed); S2C derived by comparing it with the table's wild-type CDR3 ASSPTGGSPSPLH	0.867	0
[…] (CDR3 as printed); L12V derived by comparing it with the table's wild-type CDR3 ASSPTGGSPSPLH	0.702	0
[…] (CDR3 as printed); S8R derived by comparing it with the table's wild-type CDR3 ASSPTGGSPSPLH	0.977	0
[…] (CDR3 as printed); P9K derived by comparing it with the table's wild-type CDR3 ASSPTGGSPSPLH	0.805	0
[…] (CDR3 as printed); S3R derived by comparing it with the table's wild-type CDR3 ASSPTGGSPSPLH	0.964	0
[…] (CDR3 as printed); P4D derived by comparing it with the table's wild-type CDR3 ASSPTGGSPSPLH	0.917	0
[…] (CDR3 as printed); S10M derived by comparing it with the table's wild-type CDR3 ASSPTGGSPSPLH	0.53	0
[…] (CDR3 as printed); P9L derived by comparing it with the table's wild-type CDR3 ASSPTGGSPSPLH	1.2	0
[…] (CDR3 as printed); H13S derived by comparing it with the table's wild-type CDR3 ASSPTGGSPSPLH	0.978	0
[…] (CDR3 as printed); L12G derived by comparing it with the table's wild-type CDR3 ASSPTGGSPSPLH	0.618	0
[…] (CDR3 as printed); P11A derived by comparing it with the table's wild-type CDR3 ASSPTGGSPSPLH	0.423	0
[…] (CDR3 as printed); S2A derived by comparing it with the table's wild-type CDR3 ASSPTGGSPSPLH	0.536	0

Variant	enrichment [1]	enrichment [2]
[…] (CDR3 as printed); L12D derived by comparing it with the table's wild-type CDR3 ASSPTGGSPSPLH	0.327	0
[…] (CDR3 as printed); G6E derived by comparing it with the table's wild-type CDR3 ASSPTGGSPSPLH	1.12	0
[…] (CDR3 as printed); A1H derived by comparing it with the table's wild-type CDR3 ASSPTGGSPSPLH	0.916	0
[…] (CDR3 as printed); L12C derived by comparing it with the table's wild-type CDR3 ASSPTGGSPSPLH	0.764	0
[…] (CDR3 as printed); G7Q derived by comparing it with the table's wild-type CDR3 ASSPTGGSPSPLH	1.09	0
[…] (CDR3 as printed); G6I derived by comparing it with the table's wild-type CDR3 ASSPTGGSPSPLH	1.08	0
[…] (CDR3 as printed); H13V derived by comparing it with the table's wild-type CDR3 ASSPTGGSPSPLH	0.58	0
[…] (CDR3 as printed); S8V derived by comparing it with the table's wild-type CDR3 ASSPTGGSPSPLH	0.756	0
[…] (CDR3 as printed); S10N derived by comparing it with the table's wild-type CDR3 ASSPTGGSPSPLH	1.13	0
[…] (CDR3 as printed); S10G derived by comparing it with the table's wild-type CDR3 ASSPTGGSPSPLH	0.33	0
[…] (CDR3 as printed); L12A derived by comparing it with the table's wild-type CDR3 ASSPTGGSPSPLH	1.68	0
[…] (CDR3 as printed); S10R derived by comparing it with the table's wild-type CDR3 ASSPTGGSPSPLH	1.17	0
[…] (CDR3 as printed); S2F derived by comparing it with the table's wild-type CDR3 ASSPTGGSPSPLH	0.437	0
[…] (CDR3 as printed); A1K derived by comparing it with the table's wild-type CDR3 ASSPTGGSPSPLH	0.994	0
[…] (CDR3 as printed); G6D derived by comparing it with the table's wild-type CDR3 ASSPTGGSPSPLH	0.99	0
[…] (CDR3 as printed); G6P derived by comparing it with the table's wild-type CDR3 ASSPTGGSPSPLH	1.09	0
[…] (CDR3 as printed); S10H derived by comparing it with the table's wild-type CDR3 ASSPTGGSPSPLH	0.949	0
[…] (CDR3 as printed); G7Y derived by comparing it with the table's wild-type CDR3 ASSPTGGSPSPLH	0.917	0
